Test: yeast display, Sf9 membrane polyspecificity reagent, FACS + sequencing; frameworks hold sequencing errors
Summary of the method: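 A synthetic nanobody library was expressed on Saccharomyces cerevisiae BJ5465 by galactose induction for 36–48 hours. The library was stained for 1 hour at 4 °C with 10% biotinylated, detergent-solubilized Sf9 membrane reagent and enriched with streptavidin microbeads before FACS. Low and high (top ~1%) gates were set on anti-HA fluorescence for expression and streptavidin fluorescence for reagent binding, and each polyreactivity label reflects the gate of origin.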

Sequence	polyreactivity (PSR sort gate)
QEQLVESAGGLVQAGGSLRLSCAASGSTFYRYAMGWNRQAPGKERELVAAITSSGGSTYYADSVKGRFTISRDNAKNTVYLQMNRLKPEDTAVYYWNAVRRRQSDYWGQGTQVTVSS	high polyreactivity
QVQRVESGGGIVQAGGSHRLSCAASGSIFRYYAMGWYRQAPGKEREFVAAISSSGGSTYYADSVKGRFTISRDNAKNTVYLQMNSLKPEDTAVYYCARDWPSYYARQYDYWGQGTQVTVSS	high polyreactivity
QVQLVESGGGLVQAGGSLRLSCAACGRIFGENAMGWYRQAPGKERELVASISSTDSTYYADSVKGRFTISRDNAKNTVYLQMNSLKPEDTAVYYSAARWISVWSEGAEHDYWGQGTQVTVSS	low polyreactivity
QVQLVESSGGLVQAGVSLRLSFAASGRIILNYPIGLYRKAPGKERELVAAITSDGSRSYADSVKGRFTISRDNAKNSVYLQMKSLKPEDTAVYYCANDFFEHSRVSHTYSSSKYDYGGQGTQVTVSS	low polyreactivity
QVQLVDSGGGLVQAGGSHRLSCAASGRIFVAYAMGWYRQAPGKERELVAGISRGGSTYYADSVKGRFTISRDNAKNTVYLQMNSLKPEDTAVYYCATDQRVRRYDYWGQGTQVTVSS	low polyreactivity
QVQLVESGGGLVQAGGSLRLSCAASGSIFVQYAMGWYRQAPGKERELVAAITRRAGSTYYADSVKGRFTISRDNAKNTVYLQMNSLKPEDTAVYYCAAGYRYRYTRDIWYEYWGQGTQVTVSS	high polyreactivity
QVQLVESGGGLVQAGGSLRLSCGASGFSFTRTAMGWYRQAPGKERELVAAISRGGSTNYADSVKGRFTISRDNAKITVYFQMNSLNPEDPSLYFCAKVRTRATPGVDYYYWGQGSQVTVSS	high polyreactivity
QVQLVESGGGLVQAGGSLRLSCAASGNIFYINAMGWYRQAPGKERELVAAISSGGRTNYADSVKGRFTISRDNAKNTVYLQMNSLKPEDTAVYYCNADGWYAWRYYAPGGYDYWGQGTQVTVSS	low polyreactivity
QVQLVESGGGLVQAGGSLRLSCAASGLTFKTYAMGWYRQAPGKERELVAAISRSGGSTSYADSVKGRFTISRDNAKNTVYLQMNSLKPEDTAVYYCAAKTYEPRKYEYWGQGTQVTVSS	high polyreactivity
QVQLVESGGGLVQAGGSLRLSCAASGSIFSVYAMGWYRQAPGKERELVAAITSGTSTYADSVKGRFTISRDNAKNTVYLQMNSLKPEDTAVYYCAAEFLWIVDYWGQGTQVTVSS	low polyreactivity
QVQLVESGGCLVQAGGRLRLSCAASGRIFYRYSMGWYRQAPGKERELVAAINDVGSTYYADSVKGRFTISRDNAKNTVYLQMNILKPEDTAVYYCNGVNEHQSDFVVPFDYNHWGQGTQVTVSS	low polyreactivity
QVQLVESGGGLVQAGGSLRLSCAASGSIFGTNTMGWYRQAPGKEREFVAVITGSTTSTYYADSVKGRFTISRDNAKNTVYLQMNSLKPEDTAVYYCPTDYWWDLFEYDYWGQGTQVTVSS	high polyreactivity
QVQLVESGGRLVQAGGSLRLSCAASGSTFNINAMGWYRQAPGKERELVAAISWSGDITYYADSVKGRFTISRDNAKNNVYLQMNSLKPEDTAVYYCNTDDPGNYWYAEYDYWGQGTQVTVSS	low polyreactivity
QVQLVESGGGLVQAGGSLRLSCAASGSTFTNYAMGWYRQAPGKERELVAAINSGGSTHYADSVKGRFTISRDNAKNTVYLQMNSLKPEDTAVYYCAADPSALVYYWRWLGYDYWGQGTQVTVSS	high polyreactivity
QVQLVESGGGLVQAGGSLRLSCAASGYIFRFYTMGWYRQAPGKERELVASITRSGGSTYYADSVKGRFTISRDNAKNTVYLQMNSLKPEDTAVYYCNARKTVGMDYWGQGTQVTVSS	low polyreactivity
QVHLVESGGGLVQAGGSLRLSCAASGRIFGVNAMGWYRQAPGKERELVAAITWSGGSTYYADSVKGRFTISRDNAKITVYLEMNSLKPEDTAVYYCAVEGQFDDGWAWYDYWGQGTQVTVSS	high polyreactivity
QVQLVESGGGLVQAGGSLRLSCAASGIIFYGKAMGWYRQAPGKERELVAAITWSGGSTYYADSVKGRFTISRDNAKNTVYLQMNRLKPEDTAVYYCAALSGAHEHFVEYDYWGQGTQVTVSS	low polyreactivity
QVQLVESGGGLVQAGGSLRLSCAASGIILFYAMGWYRQAPGKERELVAAISSGGGTSYADSVKGRFTISRDNAKNTVYLHMNSLKPEDTAVYYCNADGYSYFWYPSYARGHDYWGQGTQVTVSS	low polyreactivity
QVQLVESGGGLVQAGGRLRLSCAASGRIFDANVMGWYRQAPGKERELVAAISSGGRTKYADSVKGRFTISRDNAKNNVYLQMNSLKPEDTAVYYCAKKHSPLYDYWGQGTQVTVSS	low polyreactivity
QVQLVESGVGLVQAGGSLRLTCAASGRIFVRNAMGWYRQAPGKEMELVARITSSTGRTYYADSVKGRFTISRDNAKNTVYLQFTSLKPEDTAVYYCAVRYFYQFWAYDYWGKGTQVTVSS	high polyreactivity
QVQLVESWGGLVQAGGSLRLSCAASGHTFREKAMGWYRQAPGKERELLAAITSSGRTYYADSVKGRFTISRDNAKNTVYLQMNRQKPEDTAVYYCAADYWYVYPRYNPGDYWGQGSQVTVSS	high polyreactivity
QVQLVESGGGLVQAGGSLRLSCAASGSTLAPYVMGWYRQAPGKERELVSVISTRTGRTSYADSVKGRFTLSRDNAKNTVYLQMNSLKPEDTAVYYCNAQWVSWWSLYDYWGQGTQVTVSS	high polyreactivity

Sequence	polyreactivity (PSR sort gate)
QVQLVESGGGLVQAGGSLRLTSADSGRTFYKYAMGWYIQAPGKERELVAANSQSGGSTYYADSVNGRFTISRDNAKNTVYLQMNSLKPEDTAVYYCAARRLPRKERKLYYWGQGSQVTVSS	high polyreactivity
QDQLVEAGGGLVQAGGSLRKSCAASGRIFNTNAMGWNRQAPGKERELVAGITDSGDSTYYADSVKGRFTISRDNAKNTVYLQMNRLKPEDSAVYYCATDPASPYIYDFWGQGTQVTVSS	low polyreactivity
QVQLVESGGGLVQAGGSLRLSCAASGLIIRYYDMGWYRQAPGKEREFVAAITWNGGSTYADSVKGRFTISRDNAKNTVYLQMNSLKPEDTAVYYCAADLSYWDDFDYWGHGTQVTVSS	low polyreactivity
QVQLVESGGGLVQAGGSLRLSCAASGLTFVDYTKGWYRQAPGNERELVAAIDWSGGSTYYADSVKGRFTISRDNAKNPVYLQMNSLKPEDTAVYYCNALRRFYSMDDYWGQGTQVTVSS	low polyreactivity
QVQPQESGGGPVQACGSLRLSCAASGNILDADILGWYRLVPGIERELVASITDGGSTNYAESVKGRFTIRRDNAKNTVYLQMNSLIPEDTAVYYCAVWSLGRWRHYYWGQGTQVTVSS	low polyreactivity
QVQLVESGGGLVQAGGSLRLSCAASGRNFRRYALGLYRQAPGKERELVAAISSGGSTYYADSVKGRFTISRDNAKNTVYLQMNSLKPEDTAVYYCNAKVGAYLNYGYWGQGTQVTVSS	low polyreactivity
QVQLVESGGGLVQAGGSLRLSCAASGRIFAWDAMGRYRQAPGKERELVAAITWGGGRTYYADSVKGRFTISRDNAKNTVYLQMNSLKPEDTAVYYCAAYSYKEEAYRGVAQERDYWGQGTQVTVSS	low polyreactivity
QVQLVESGGGLVQAGGSLRLSCAASGRLFYSYAMGWYRQAPGKERELVAAIGRGGGTTYADSVKGRFTISRDNAKNTVYLQMNSLKPEDTAVYYCAADWHSTPRHTMDYWGQGTQVTVSS	low polyreactivity
QGQLVESGGGLVQAGGSLRLSCAASGSIFPYYAMGWYRQAHGKERELVAVITTSGGRTYYADSVKGRFTISRDNAKNTVYLQMNSLKPADTAVYYCATDVRQGSGWRYYYWGQGTQVTVSS	high polyreactivity
QLQLVESGGGLVQAGGSLRLSCAASVRIFDVYAMGWYRQAPGKERELVAAITWDGGSTYYADSVKGRFTISRDNAKNTVYLQMNSLKPEDTAVYYCAAEPVYTQRKGYDYWGHGTQVTVSS	low polyreactivity
QVQLVESGGGLVQAGGSLRLSCAASGITFSKNAMGWYRKEPGKEKELVAAISRGGSTYYADSEKGRFTISRDNAKNTVYLQMNSLKPEDTAVYYCAARSRYYYRRPQISYDYWGQGTQVTVSS	low polyreactivity
QVQLVESGGGLVQAGGSLRLSCSASGITFTGYGMGWYRQAPGKERELVAAIRLRTGSTYYADSVKGRFTISRDNAKNTVYLQMNSLKPEDTAVYYCAKKWSSKYWGQGTQVTVSS	high polyreactivity
QVQLVESGGGLVQAGGSLRLSCAASGRIFDTYVMRWYRQAPGKERELVAAISGSGGSTYYADSVKGRFTISRDTAKNTVYLQMNSLKPEDTAVYYCAAVVLGRLLGFRGDYNYWGQGPQVTVSS	high polyreactivity
QVQLVESGGGLVQAGGSLRLSCAASGSTFGYYAMGWYRQAPGKEREFVAAITSDGSSTYYADSVKGRFTISRDNAKNTVYLQMNSMKREDTAVYYCAADTFTYGGYKFYIFYWGQGTQVTVSS	high polyreactivity
QVQLVESGGGLVQAGGSLRLSCAASGRTFSIYAMGWYRQAPGKERELVASITGRGTRTYYADSVKGRFTISRDNAKNTVYLQMNSLKPEDTAVYYCNARGKVQSSYDDDYWGQGTQVTVSS	high polyreactivity
QVQLVESGGGLVQAGGSLRLSCAASGSTYFHYAMGWYRQAPGKERELVAAISKSVGTTYYADSVKGRFTISRDNAKNTVYLQMNSLKPEDPAVYYCAADSVITWWAYDYWGQGTQVTVSS	high polyreactivity
QVQLVESGGGLVQAGGSLRLSCAASGSIFSGYVMGWYRQAPGKERELVAAISGSGGSTYYADSVKGRFTISRDNAKNTVYLQMNSLNPEDTAVYYCNKGLSRSYWWVDYWGQGTQVTVSS	low polyreactivity
QVQLVESGGGLVQAGGSLRLSCAASGIIFFLYAMGWYRPAPGKERELVAAISSGGSTYYADSVKGRFTISRDNAKNTVYLQMNSLKPEDTAVYYCNARYWPFRYYYWGQGTQVTVSS	high polyreactivity
QVQLVESGAGLVQAGGSLRLSCAASGSTFGRNAMGWYRQPPGKERELVASISSGGSTYYADSVKGRFTISRDNAKNTVYLQMNSLKPEDTAVYYCAKDWVYEISYYYYELDYWGQGTQVTVSS	low polyreactivity
QVQLVESGGGLVQAGGSLRLSCAASGRTFPGNAMGWYRQAPGKERELVAAITSSGSTNYADSVKGRFTISRDNAKNTVYLQMNSLKPEDTAVYYCNAAWFYVYGVWILDWGQGTQVTVSS	low polyreactivity
QVQLVESGGGLVQAGGSLRLSCAPSGFIFRYYAMGWYRHAPGKERELVAAISRTSGRTYYADSVKGRFTISRDNAKNTVYLQMNSLKPEYTAVDYCAAVVRNPGTYEYWGQGTQVTVSS	high polyreactivity
